Data: patent US20220289806A1 (CYTIMM THERAPEUTICS, published 2022)

Assays:
[1] = target: T1, IL-2Rαβγ on human T cells (human, UniProt P01589 22-272; P14784 27-551; P31785 23-369); assay: cell-based or functional assay
T1 sequence (looked up) 1: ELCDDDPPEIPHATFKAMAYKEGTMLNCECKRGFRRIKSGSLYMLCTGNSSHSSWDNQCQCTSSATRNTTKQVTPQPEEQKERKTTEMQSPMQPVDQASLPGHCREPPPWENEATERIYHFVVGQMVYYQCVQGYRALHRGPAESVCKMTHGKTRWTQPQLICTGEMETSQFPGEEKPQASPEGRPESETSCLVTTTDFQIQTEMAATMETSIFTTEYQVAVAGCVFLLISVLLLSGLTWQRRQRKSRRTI
T1 sequence (looked up) 2: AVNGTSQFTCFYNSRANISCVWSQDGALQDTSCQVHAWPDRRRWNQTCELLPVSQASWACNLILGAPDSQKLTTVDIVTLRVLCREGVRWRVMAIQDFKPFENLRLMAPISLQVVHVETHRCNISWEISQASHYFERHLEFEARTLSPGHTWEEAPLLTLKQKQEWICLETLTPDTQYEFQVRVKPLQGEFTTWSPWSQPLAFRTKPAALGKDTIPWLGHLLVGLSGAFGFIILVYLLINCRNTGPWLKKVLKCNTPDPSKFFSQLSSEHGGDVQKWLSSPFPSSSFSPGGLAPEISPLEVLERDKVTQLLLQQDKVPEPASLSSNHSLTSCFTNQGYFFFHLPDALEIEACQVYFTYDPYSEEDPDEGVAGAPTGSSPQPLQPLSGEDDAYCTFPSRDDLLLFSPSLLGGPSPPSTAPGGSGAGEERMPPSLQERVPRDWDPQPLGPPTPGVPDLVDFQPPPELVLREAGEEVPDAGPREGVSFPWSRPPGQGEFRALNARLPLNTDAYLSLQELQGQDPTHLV
T1 sequence (looked up) 3: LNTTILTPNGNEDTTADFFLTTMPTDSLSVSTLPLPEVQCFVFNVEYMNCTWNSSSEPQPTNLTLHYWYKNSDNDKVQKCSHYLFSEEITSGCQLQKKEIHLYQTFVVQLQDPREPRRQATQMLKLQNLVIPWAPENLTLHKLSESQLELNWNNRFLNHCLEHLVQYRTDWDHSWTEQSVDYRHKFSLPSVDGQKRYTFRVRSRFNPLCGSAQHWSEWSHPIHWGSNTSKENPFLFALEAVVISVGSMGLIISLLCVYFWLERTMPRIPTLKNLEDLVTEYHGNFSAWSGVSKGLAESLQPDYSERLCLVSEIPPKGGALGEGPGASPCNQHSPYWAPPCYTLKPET

[2] = target: T2, IL-2Rβγ on human CD8+CD45RA+CD25low naïve T cells (human, UniProt P14784 27-551; P31785 23-369); assay: cell-based or functional assay
T2 sequence (looked up) 1: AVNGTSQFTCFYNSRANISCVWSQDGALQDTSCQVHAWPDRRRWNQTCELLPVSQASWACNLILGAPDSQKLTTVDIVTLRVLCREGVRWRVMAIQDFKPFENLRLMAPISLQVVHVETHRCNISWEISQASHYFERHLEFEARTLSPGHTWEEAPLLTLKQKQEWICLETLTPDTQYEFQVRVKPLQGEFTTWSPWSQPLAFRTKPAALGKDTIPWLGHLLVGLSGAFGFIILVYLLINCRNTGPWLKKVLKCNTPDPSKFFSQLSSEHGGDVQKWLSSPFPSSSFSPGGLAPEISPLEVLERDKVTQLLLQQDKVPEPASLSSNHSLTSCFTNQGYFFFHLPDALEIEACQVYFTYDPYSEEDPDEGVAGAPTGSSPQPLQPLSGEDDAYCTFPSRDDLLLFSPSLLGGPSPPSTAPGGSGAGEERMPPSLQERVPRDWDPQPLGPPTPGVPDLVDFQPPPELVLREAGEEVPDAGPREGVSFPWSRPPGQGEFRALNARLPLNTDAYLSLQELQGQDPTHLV
T2 sequence (looked up) 2: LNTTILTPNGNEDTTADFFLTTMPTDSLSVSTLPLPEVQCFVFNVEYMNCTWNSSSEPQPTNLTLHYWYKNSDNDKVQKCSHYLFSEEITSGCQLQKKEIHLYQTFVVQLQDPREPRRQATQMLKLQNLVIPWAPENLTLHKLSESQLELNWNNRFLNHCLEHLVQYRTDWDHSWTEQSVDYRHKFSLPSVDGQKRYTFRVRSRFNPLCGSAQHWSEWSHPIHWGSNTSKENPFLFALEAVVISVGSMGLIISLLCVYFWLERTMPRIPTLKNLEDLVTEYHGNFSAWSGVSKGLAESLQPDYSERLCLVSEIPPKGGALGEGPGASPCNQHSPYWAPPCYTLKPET

[3] = target: T3, IL-2Rα in human Fc fusion protein format (ACROBiosystems) (human, UniProt P01589 22-217, limits assumed); assay: Octet QKe (biolayer interferometry): IL-2Rα-human Fc on AHC sensors, serial dilutions of the IL-2 variant [cont.]
T3 construct: Bought reagent, captured on anti-Human IgG Fc Capture (AHC) sensors; also called CD25; not shown: human Fc
T3 sequence (looked up): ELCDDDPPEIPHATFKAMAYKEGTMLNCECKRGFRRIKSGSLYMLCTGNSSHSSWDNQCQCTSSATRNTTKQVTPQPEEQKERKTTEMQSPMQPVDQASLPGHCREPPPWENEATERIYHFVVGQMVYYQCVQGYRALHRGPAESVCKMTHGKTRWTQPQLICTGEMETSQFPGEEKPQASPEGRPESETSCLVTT
Excerpt: IL-2Rα or IL-2Rβ in human Fc fusion protein format (ACROBiosystems) were captured on anti-Human IgG Fc Capture (AHC) sensors. […] Dissociation was detected following transfer of sensors into wells containing buffer alone. Data were collected and analyzed by Octet User Software. For analysis of the kinetics constants, 1:1 curve fitting model was used.

- EC50 of STAT5 phosphorylation, CD25+CD4+ T (IL-2Rαβγ) [1]: 1.65 mg/L
- EC50 of STAT5 phosphorylation, CD25-CD8+ naïve T (IL-2Rβγ) [2]: 1.6 mg/L
- binding result [3]: no binding (tested: not printed)
B1: Y31C-PEG20 + F42K (ligand)
chain: APTSSSTKKTQLQLEHLLLDLQMILNGINNCKNPKLTRMLTKKFYMPKKATELKHLQCLEEELKPLEEVLNLAQSKNFHLRPRDLISNINVIVLELKGSETTFMCEYADETATIVEFLNRWITFSQSIISTLT
modifications: maleimide-PEG 20K on Cys 31
notes: rhIL-2 (C125S) background with Y31C and F42K, PEGylated at Cys 31; not shown: His tag
